Assay results as given in patent publication US20240010735A1 (EISAI R AND D MANAGEMENT, published 2024).

What was measured:
Assay in all cases: ELISA: Fc-His proteins (1 nM) captured on anti-6-His antibody, antibody B 10 µg/mL with human IgG 100 µg/mL, HRP anti-human kappa light chain antibody, OD450 as % of mouse EphA4-Fc-His
[1] = biological target: T1, mouse EphA7 extracellular region-Fc-His protein (mouse; human, UniProt Q61772 28-555)
T1 construct: extracellular domain; not shown: Fc region of human IgG1; histidine tag
T1 sequence (looked up): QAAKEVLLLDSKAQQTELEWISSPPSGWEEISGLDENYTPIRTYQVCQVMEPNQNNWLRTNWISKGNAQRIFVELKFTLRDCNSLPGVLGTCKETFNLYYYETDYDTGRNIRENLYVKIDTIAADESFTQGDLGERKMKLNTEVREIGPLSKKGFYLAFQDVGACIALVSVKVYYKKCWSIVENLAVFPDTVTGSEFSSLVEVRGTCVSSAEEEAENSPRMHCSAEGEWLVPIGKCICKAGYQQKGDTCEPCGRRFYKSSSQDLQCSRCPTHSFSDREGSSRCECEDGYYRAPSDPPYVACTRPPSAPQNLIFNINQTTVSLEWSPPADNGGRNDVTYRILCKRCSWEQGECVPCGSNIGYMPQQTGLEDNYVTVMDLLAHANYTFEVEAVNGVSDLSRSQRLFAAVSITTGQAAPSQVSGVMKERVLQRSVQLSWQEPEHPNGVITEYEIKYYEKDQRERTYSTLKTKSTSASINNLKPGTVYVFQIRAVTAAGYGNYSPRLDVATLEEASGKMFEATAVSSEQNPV
Procedure: (§1) Rabbit anti-6-His antibodies (Bethyl Laboratories) were coated onto the wells of a 96-well plate (Nunc). After incubating at 4° C. overnight, the wells were blocked at room temperature for 1 hour by 1% Block Ace (DS Pharma Biomedical). After washing 3 times with 0.05% Tween 20/PBS (Thermo […]), each Eph receptor of mouse extracellular region-Fc-His protein (final concentration 1 nM) was seeded into each well, and incubated at room temperature for 1 hour. After washing 3 times, human IgG solution (100 μg/mL, Sigma) and antibody B (10 μg/mL) were supplemented to the wells, and incubated at room temperature for 1 hour. Horseradish peroxidase-labeled goat anti-human Kappa Light Chain antibody (IBL) was added, and incubated at room temperature for 1 hour. After washing 3 times, TMBZ (3,3′,5,5′-tetramethylbenzidine, Sigma) solution was added to the wells, and upon confirmation of modest coloring, an equal amount of quenching solution (1 N H₂SO₄, Wako Pure Chemicals) was added to the wells, and absorbance at 450 nm was read by a microplate reader (PerkinElmer).

[2] = biological target: T2, mouse EphA3 extracellular region-Fc-His protein (mouse; human, UniProt P29319 21-540)
T2 construct: extracellular domain; not shown: Fc region of human IgG1; histidine tag
T2 sequence (looked up): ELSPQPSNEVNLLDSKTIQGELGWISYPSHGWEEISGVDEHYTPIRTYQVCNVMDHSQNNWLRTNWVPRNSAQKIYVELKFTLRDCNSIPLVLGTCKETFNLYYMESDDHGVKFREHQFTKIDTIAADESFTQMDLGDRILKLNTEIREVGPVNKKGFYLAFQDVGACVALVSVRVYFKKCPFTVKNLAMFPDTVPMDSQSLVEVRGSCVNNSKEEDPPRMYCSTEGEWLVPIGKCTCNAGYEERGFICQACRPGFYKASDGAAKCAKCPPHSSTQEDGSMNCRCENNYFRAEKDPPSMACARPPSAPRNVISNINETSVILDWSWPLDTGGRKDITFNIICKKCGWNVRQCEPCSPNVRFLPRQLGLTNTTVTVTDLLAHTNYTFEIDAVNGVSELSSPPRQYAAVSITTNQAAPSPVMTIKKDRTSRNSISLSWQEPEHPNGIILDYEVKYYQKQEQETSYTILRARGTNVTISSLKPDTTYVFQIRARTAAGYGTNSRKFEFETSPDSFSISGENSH
Procedure: as §1

[3] = biological target: T3, mouse EphA2 extracellular region-Fc-His protein (mouse, UniProt Q03145 26-538)
T3 construct: extracellular domain; Cloned into a pcDNA 3.1 vector separately from the other mouse Eph receptors; not shown: Fc; histidine tag
Procedure: as §1

[4] = biological target: T4, mouse EphA8 extracellular region-Fc-His protein (mouse; human, UniProt O09127 27-541)
T4 construct: extracellular domain; not shown: Fc region of human IgG1; histidine tag
T4 sequence (looked up): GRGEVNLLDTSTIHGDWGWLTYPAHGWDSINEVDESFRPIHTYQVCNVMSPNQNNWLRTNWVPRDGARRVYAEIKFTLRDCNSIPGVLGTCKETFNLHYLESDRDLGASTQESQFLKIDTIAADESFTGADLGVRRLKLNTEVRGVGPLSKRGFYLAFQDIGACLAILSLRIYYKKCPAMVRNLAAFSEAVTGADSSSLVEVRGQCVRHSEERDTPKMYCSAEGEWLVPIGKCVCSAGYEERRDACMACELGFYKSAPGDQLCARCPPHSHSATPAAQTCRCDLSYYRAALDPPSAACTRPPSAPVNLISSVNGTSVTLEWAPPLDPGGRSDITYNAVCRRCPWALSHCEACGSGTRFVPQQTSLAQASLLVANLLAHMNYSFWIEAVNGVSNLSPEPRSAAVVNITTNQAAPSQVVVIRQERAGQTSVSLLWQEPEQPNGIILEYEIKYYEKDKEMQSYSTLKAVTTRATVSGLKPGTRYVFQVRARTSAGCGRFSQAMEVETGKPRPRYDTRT
Procedure: as §1

Measured: binding result

T3 sequence (Q03145 26-538): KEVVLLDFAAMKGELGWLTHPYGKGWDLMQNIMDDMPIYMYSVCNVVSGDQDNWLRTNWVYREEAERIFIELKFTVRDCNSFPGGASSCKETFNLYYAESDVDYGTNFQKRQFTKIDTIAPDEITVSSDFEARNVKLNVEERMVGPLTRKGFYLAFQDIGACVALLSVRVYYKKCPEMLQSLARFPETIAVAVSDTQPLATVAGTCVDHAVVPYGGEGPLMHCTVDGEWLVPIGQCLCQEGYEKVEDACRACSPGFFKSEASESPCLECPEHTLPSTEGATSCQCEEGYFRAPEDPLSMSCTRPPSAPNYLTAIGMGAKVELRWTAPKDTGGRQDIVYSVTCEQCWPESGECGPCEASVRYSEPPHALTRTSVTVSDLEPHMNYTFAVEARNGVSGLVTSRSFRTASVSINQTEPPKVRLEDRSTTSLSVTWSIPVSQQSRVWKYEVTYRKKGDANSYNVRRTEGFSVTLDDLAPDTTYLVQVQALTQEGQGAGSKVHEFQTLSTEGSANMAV

B1: humanized anti-EphA4 monoclonal antibody (antibody B) (antibody, human IgG2, V domains shown)
VH: QVQLVESGGGVVQPGRSLRLSCAVSGFSLTRFGVHWVRQAPGKGLEWVAVIWRGGSTDYNAAFMSRLTISKDNSKNTVYLQMNSLRAEDTAVYYCAKESLFGVYYDYGYYSMDYWGQGTTVTVSS
VL: DIQMTQSPSSLSASVGDRVTITCRASQEISGYLSWLQQKPGKAPKRLIYAASTLDSGVPSRFSGSRSGTEYTLTISSLQPEDFATYYCLQYASYPLTFGGGTKVEIKR
notes: expressed in Expi293F cells; also called humanized antibody of antibody A; HK2-42 / L1-8
no binding (tested: 10 µg/mL): all assays above
